B1: ZNF449 (parent)
chain: EPHKCPECGKRFLRSSDLYRHQRL
B2: HDAC6 (parent)
chain: YVHHQALLDVKNIAHQNKFGEDMP

Variants of: B1
Experiment: protein stability index of a GFP-peptide fusion (GPS, HEK-293T) (PSI 1-6); higher = more stable
Conditions: c terminus: a fixed tail appended
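Further: lentivirally expressed fusions sorted by FACS into six bins by GFP to DsRed ratio, PSI derived from sequencing read proportions per bin multiplied by bin number.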

Protein stability index, by site and new letter:
E7: N 3.81
S16: L 2.72, R 3.52, E 4.99
E1: A 2.84
C8: V 3.25, I 3.06, H 3.26
L24: D 4.98
Y19: S 3.68
P6: Y 3.53, A 3.75
L18: F 3.44
H3: P 3.33
G9: F 2.52
Q22: Y 3.44, H 3.27, W 2.78, C 3.97
R11: P 3.68, M 4.26
H21: V 2.11
K10: G 2.11, Y 2.5
P2: E 3.42
K4: L 4.49, M 4.7
D17: M 2.35

Variants of: B2
Experiment: as above
Conditions: c terminus: a fixed tail appended

Protein stability index of substitutions, site by site:
Q16: G 1.58, D 2, H 1.77, T 1.91, L 2.21, F 1.59, P 2.3, K 1.49, W 2, V 1.48, C 2.01, N 2.15, R 1.8, E 2.12, M 2.28, I 2.16
H4: I 1.97, E 2.82, P 3.02, C 1.7, M 1.83, Y 1.78, S 1.64, D 2.64, R 1.74, T 1.47, N 1.65, Q 2.61, W 3.43
A6: F 1.4, S 2.41, G 2.65, W 2.7, C 1.71, M 1.96, I 3.2, K 1.64, Y 2.07, H 1.86, P 1.69
A14: C 3.38, H 1.74, I 2.12, E 2.3, D 2, V 2.59, F 1.52, P 2.42, M 1.99, Q 2.21, G 1.76
I13: A 2.18, T 1.9, L 1.77, P 2.17, E 2.27, F 1.94, M 2.47, Q 1.92, Y 1.95, N 1.98, G 2.39, V 2.31, K 2, S 2.28, W 2.16, C 1.81
H15: Y 1.43, P 2.37, M 2.12, R 2.16, L 1.91, C 1.7, N 1.63, F 1.51, D 2.2, T 1.59, E 2.53, V 2.08, W 2.85, Q 2.08, G 1.51
D9: Q 1.68, S 2.25, F 2.23, E 2.4, K 2.67, C 2.38, V 1.25, A 3.21, L 2.25, W 3.58, R 1.65, I 3.33, T 1.95, Y 2.35, G 1.85
K18: W 1.9, Q 1.95, E 2.37, F 1.9, H 1.78, M 1.94, N 2.26, A 2.23, C 1.37, D 1.7, R 2.88, Y 2.2
L8: N 2.71, I 1.65, K 2.31, T 2.44, V 1.75, C 2.43, R 2.06, D 2.71, E 2.87, F 3.34, P 2, W 1.81, Y 2.32
M23: C 1.95, V 1.74, L 1.97, W 1.49, T 2.63, I 2.39, S 2.13, P 2.18, G 2.03, D 2.17, Y 2.14
V2: R 3.69, H 1.65, W 2.21, T 2.95, Q 2.77, A 3.16, I 1.81, F 2.44, G 3.43, S 3.56, C 2.02, L 2.56, M 3.17
N12: Y 3.4, R 2.36, F 2.65, C 1.42, S 2.09, K 2.18, T 2.09, V 1.54, W 2.64, M 1.87
E21: A 2.01, T 2.01, W 2.02, R 1.47, C 2.23, G 2.14, S 2.22, V 1.61, L 1.72, M 1.71, Q 2.11
H3: T 1.82, W 2.41, C 1.89, A 1.55, K 2.18, F 1.48, N 2.62, P 1.65, I 1.66, R 1.39, D 2.14, L 2, M 1.8
P24: C 1.98, W 2.05, S 2.25, Q 1.91, N 2.19, R 1.56, V 1.57, D 1.96, Y 1.51, E 1.77
Y1: K 4.06, H 3.66, S 4.29, F 1.94, Q 4.14, C 3.29, N 4.39, I 3.21, T 3.75, D 4.81, W 2.98, A 4.15
Q5: I 1.88, H 2.19, W 3.05, E 2.16, K 2.02, L 1.75, M 2.21, N 1.79, R 2, V 1.85, P 1.71, A 2.4, G 1.87, C 1.36
F19: W 1.73, K 1.91, E 2.45, Y 1.96, T 2.19, S 2.39, V 1.83, R 1.88, I 1.76, P 2.83, L 2.09, A 2.51, Q 2.35
L7: R 1.8, M 2.32, K 1.9, P 2.73, S 2.31, D 2.61, H 2.25, T 2.18, Q 2.14, F 2.39, A 1.89, Y 2.53
N17: V 1.75, F 1.38, W 1.19, A 2.83, H 1.72, R 1.89, I 1.48, G 1.58, M 1.59, S 2.46, P 2.12, T 2.47, Y 1.57, D 1.9
V10: Q 2.43, Y 1.62, H 2.14, W 2.37, M 1.73, R 1.85, K 2.21, L 1.9, P 2.15, D 2.74, C 2, I 1.22, E 2.5, F 1.98, G 2.02
K11: E 2.24, L 1.27, T 2.25, C 1.54, N 1.98, F 2.13, Q 1.4, A 1.81, Y 2.77, P 1.92, G 1.95, I 2.09, R 2.08, M 1.72, V 1.41, D 2.18
G20: D 2.28, M 2.35, F 3.09, L 2.19, I 1.88, A 1.99, V 2.13, N 1.96, Y 2.58, E 2.26
D22: I 2.21, M 1.68, E 1.69, G 1.64, Q 1.76, N 2.31, F 1.57, Y 1.74, C 2.63, S 2.48

Reference: the supplement of paper PMC10567573
